The values below come from US20220356245A1 (FORTY SEVEN, published 2022).

For assay [1], the target named is T1, human CD47 (hCD47) expressed on cells (human, UniProt Q08722 19-323).
T1 construct: Transfected CHO cells or endogenous CD47 of human cells; also called CHO-hCD47; CD47 on Raji cells
Put plainly: flow cytometry on Raji cells, hIgG4 format, delta MFI. (Flow cytometry measures light scatter and fluorescence of single cells or particles in a stream.)

Assay [2] has as its target T1, human CD47 (hCD47) expressed on cells. Kind of assay: flow cytometry, Raji cells, competition with hSIRPα.
For assay [3] the target is unchanged. Kind of assay: flow cytometry on Raji cells, hIgG4 format: inhibition of hSIRPα binding to hCD47.
The target is the same in assay [4]. Put plainly: flow cytometry, Raji cells.
Assay [5] has as its target T2, hu-sCD47-6His; extracellular domain of human CD47 antigen with 6His-tag (human).
T2 construct: also called hCD47-his; soluble hCD47
Kind of assay: SPR Biacore. A general note: In SPR one partner is held on a chip, and binding of the other changes the refractive index at the surface.
From the text: (§1) An anti-human or anti-mouse IgG (Fc) was first immobilized on the surface of Serie S Sensor Chips CM5 using the human or mouse antibody capture and amine coupling kits, following the manufacturer's instructions (GE Healthcare). […] The mouse, chimerized or humanized antibodies to be tested were then captured onto the appropriate anti-mouse or anti-human IgG surface in all flow cells except flow cell 1 used as control, at concentration and contact time adjusted so that ˜300 RU were captured on the surface. Binding kinetics were studied by passing increasing concentrations of hCD47-his in a series of five 10 minute injections through all flow cells at a rate of 30 μL/min. […] Following the final injection, buffer was passed across each flow cell for 60 minutes (mouse) or 30 minutes (human) to monitor the dissociation of bound antigen. Regeneration of the binding surface was carried out at the end of the cycle by flowing 3 M MgCl₂ for 60 s at 20 μL/min followed by 10 mM glycine-HCl, pH 1.7 for 180 s at 10 μl/min (for human) or by flowing 10 mM glycine-HCl, ph 1.7 for 360 s at 10 μl/min (for mouse). A second cycle with the same antibodies but no antigen was run as a control. Kinetics binding constants were estimated by non-linear fitting of the sensogram data to the 1:1 binding model provided by the Biacore T200 evaluation software.

Assay [6] deals with T3, mouse CD47 (mCD47) expressed on CHO cells (mouse, UniProt Q61735 19-303).
T3 construct: whole, on cells; also called CHO-mCD47
T3 sequence (looked up): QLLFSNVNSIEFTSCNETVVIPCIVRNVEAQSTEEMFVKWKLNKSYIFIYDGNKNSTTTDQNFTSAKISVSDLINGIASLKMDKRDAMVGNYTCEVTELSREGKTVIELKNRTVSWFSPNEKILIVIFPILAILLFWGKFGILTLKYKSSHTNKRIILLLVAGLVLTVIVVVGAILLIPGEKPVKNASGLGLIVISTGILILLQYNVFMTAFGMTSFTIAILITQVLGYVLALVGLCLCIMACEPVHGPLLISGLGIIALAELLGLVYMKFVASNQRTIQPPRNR
Kind of assay: flow cytometry, CHO-mCD47 cells.

Assay [7] concerns the target T1, human CD47 (hCD47) expressed on cells. Put plainly: flow cytometry, Raji cells. This is another data set of the same source.
Method: (§2) Raji cells (ATCC-CLL-86; 2×10⁵ cells/well of 96-well plate) were first incubated at +4° C. for 30 minutes with serial dilutions of anti-CD47 antibodies or control isotype antibody (in mIgG2a or mIgG1 format). The cells were then washed and incubated for 30 minutes at +4° C. with a PE-conjugated F(ab)′2 goat anti-mouse IgG antibody ( 1/100 dilution, Beckman Coulter). After washings, the fluorescence of the cells was analyzed by flow cytometry on an Accuri-C6 flow cytometer (BD Biosciences).
(§3) The delta of MFI, representing the difference between the intensity measured with the tested antibody and the intensity in the absence of antibody, was calculated for each antibody concentration and the values were plotted against the antibody concentrations. The EC50 values were then calculated by using a nonlinear regression analysis model of the GraphPad Prism software.
In assay [8] the target is T2, hu-sCD47-6His; extracellular domain of …. Put plainly: SPR Biacore T200, antibody captured, hCD47-his analyte.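 Note: antibodies captured on anti-IgG (Fc) CM5 chip, five sequential 10 min antigen injections at rising concentrations, reference flow cell and antigen-free cycle as controls, 1:1 model fit.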
From the text: as §1
In assay [9] the target is T1, human CD47 (hCD47) expressed on cells. Kind of assay: flow cytometry, hCD47-CHO cells, competition with His-hSIRPα.
Method: Human CD47-transfected cells (3×10⁵ cells/well of 96-well plate) were first incubated at +4° C. for 30 minutes with serial dilutions of anti-CD47 antibodies or isotype control antibody (in mIgG2a or mIgG1 format). […] The percentage inhibition was plotted against antibody concentration and the IC50 values were calculated using a nonlinear regression analysis model of the GraphPad Prism software.
The target is the same in assay [10]. Kind of assay: flow cytometry, Raji cells; upper end tied to candidate 19 by Table 6.
Method: as §2, §3
Assay [11] has the same target. Put plainly: cell-based or functional assay.
Assay [12] deals with T3, mouse CD47 (mCD47) expressed on CHO …. Put plainly: flow cytometry, CHO-mCD47 cells. The source holds these as a separate data set.
Assay [13] addresses T1, human CD47 (hCD47) expressed on cells. Put plainly: flow cytometry, Raji cells, competition with hSIRPα. The source holds these as a separate data set.
Assay [14] has the same target. Kind of assay: flow cytometry on Raji cells, hIgG4 format, delta MFI. This is another data set of the same source.
The target is the same in assay [15]. Kind of assay: flow cytometry, Raji cells. The source holds these as a separate data set.
Assay [16] has the same target. Put plainly: flow cytometry on Raji cells, hIgG4 format, delta MFI. The source holds these as a separate data set.
For assay [17] the target is unchanged. Put plainly: flow cytometry on Raji cells, hIgG4 format: inhibition of hSIRPα binding to hCD47. This is another data set of the same source.
In assay [18] the target is T2, hu-sCD47-6His; extracellular domain of …. Put plainly: ELISA, coated glycosylated hCD47-His. (In general: ELISA stands for enzyme-linked immunosorbent assay.)
Method: (§4) The EC50 and EC95 values were calculated by using the non-linear regression/log (antibody) versus response (four parameters) model of the GraphPad Prism software.
Assay [19] has the same target. Put plainly: SPR Biacore; head read as x 10^-4.
From the text: as §1
In assay [20] the target is T4, N-deglycosylated soluble hCD47-His (PNGase treated) (human, N-glycans removed with PNGase).
T4 construct: also called deglycosylated-hCD47; N-Deglycosylated hCD47-His
Kind of assay: ELISA, one-site binding saturation fit, deglycosylated hCD47.
Method: (§5) The equilibrium binding constant values were calculated by using the binding saturation/one-site binding model of the GraphPad Prism software (mean +/− SD of triplicates).

Assay [21] deals with T2, hu-sCD47-6His; extracellular domain of …. Put plainly: ELISA, one-site binding saturation fit, glycosylated hCD47.
Method: as §5
In assay [22] the target is T1, human CD47 (hCD47) expressed on cells. Kind of assay: flow cytometry on Raji cells, hIgG4 format: inhibition of hSIRPα binding to hCD47. The source holds these as a separate data set.
The target of assay [23] is T4, N-deglycosylated soluble hCD47-His …. Kind of assay: ELISA, coated N-deglycosylated hCD47-His.
Assay [24] has as its target T1, human CD47 (hCD47) expressed on cells. Kind of assay: flow cytometry on Raji cells, hIgG4 format: inhibition of hSIRPα binding to hCD47. This is another data set of the same source.
The target of assay [25] is T2, hu-sCD47-6His; extracellular domain of …. Kind of assay: ELISA, one-site binding saturation fit, glycosylated hCD47. This is another data set of the same source.
Method: (§6) The Bmax values were calculated by using the binding saturation/one-site binding model of the GraphPad Prism software (mean +/− SD of triplicates).
Assay [26] concerns the target T1, human CD47 (hCD47) expressed on cells. Kind of assay: flow cytometry on Raji cells, hIgG4 format, delta MFI. The source holds these as a separate data set.
The target in assay [27] is T2, hu-sCD47-6His; extracellular domain of …. Kind of assay: SPR Biacore. This is another data set of the same source.
From the text: as §1
Assay [28] addresses T4, N-deglycosylated soluble hCD47-His …. Put plainly: ELISA, one-site binding saturation fit, deglycosylated hCD47. This is another data set of the same source.
Method: as §6
Assay [29] shares this target. Put plainly: ELISA; against glycosylated hCD47-His.
Method: as §4
Assay [30] deals with T1, human CD47 (hCD47) expressed on cells. Kind of assay: flow cytometry on Raji cells, hIgG4 format, delta MFI. The source holds these as a separate data set.
The target is the same in assay [31]. Put plainly: flow cytometry on Raji cells, hIgG4 format: inhibition of hSIRPα binding to hCD47. The source holds these as a separate data set.
Assay [32] has the same target. Kind of assay: flow cytometry, Raji cells; lower end tied to candidate 15 by Table 6.
Method: as §2, §3
Assay [33] has the same target. Put plainly: flow cytometry, Raji cells, competition with His-hSIRPα; lower end tied to candidates 14 and 15 by Table 7.
Method: (§7) The percent inhibition was plotted against antibody concentration and the IC50 values were calculated by using a nonlinear regression analysis model of the GraphPad Prism software.
For assay [34] the target is unchanged. Kind of assay: flow cytometry, Raji cells, competition with His-hSIRPα.
Method: as §7

Changes are numbered by the printed parent chain. Numbers in names are those of the source. Read-outs that look alike come from different tables or passages of the source.

B1: h20-H3-L2Y (candidate 20.27), hIgG4-S228P (antibody, V domains shown)
VH: QVQLVQSGAEVKKPGASVKVSCKASGYSFTDYYINWVRQAPGQGLEWMGRIYPGIGNTYYNKKFKGRVTVTRDTSISTAHMELSSLRSDDTAVYYCARGHYGRGMDYWGQGTAVTVSS
VL: DIVMTQSPDSLAVSLGERATINCKSSQSLLNSIDQKNYLAWYQQKPGQPPKLLIYYASTKESGVPDRFSGSGSGTDFTLTISSLQAEDVAVYYCQQHYSTPWTFGGGTKVEIKR
notes: also called H20-VH3-VL2,Y
With B1, the EC50 (read off the curve) (as a rule, the concentration giving half of the maximal effect) in assay [1] is approximately 0.1 µg/mL. Further, the half-maximal inhibitory concentration (IC50) (as a rule, the concentration that gives 50% inhibition) in assay [2] came to 0.101 µg/mL. Besides, the “IC50 (read off the curve)” value in assay [3] is approximately 0.2 µg/mL. Moreover, the EC50 (commonly the concentration at which the effect is half-maximal) in [4] was 0.0854 µg/mL. Moreover, in [5], the Kd (commonly a measure of binding affinity in units of concentration) stood at 2.06 nM; the koff – broadly, a measure of how fast the partners let go of each other – came out at 0.000584 s⁻¹; the kon (commonly the rate constant with which the complex forms) is 292000 M⁻¹ s⁻¹.

B2: Candidate 19 (VL008-AL17-7G1-7K6), mouse IgG (antibody, V domains shown)
VH: QVQLQQSGPELVKPGASVKISCKASVYTFTDYYINWVKQRPGQGLEWVGWIFPGSGLTYYNKKFKGKATLTVDKSSSTAYMLLSSLTSEDSAVYFCARPYYGSRWDYAMDYWGQGTSVTVSS
VL: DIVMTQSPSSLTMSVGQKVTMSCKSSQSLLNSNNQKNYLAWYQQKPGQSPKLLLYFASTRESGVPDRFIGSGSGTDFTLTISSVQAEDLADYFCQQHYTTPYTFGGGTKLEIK
notes: Recombinant mouse IgG2a or mIgG1 format, by assay
On to B2, for which the binding result in [6] is recorded as “no binding (tested: 7.3 µg/mL highest concentration)”. For the same molecule, in [7], the EC50 is 0.165 µg/mL. Moreover, in assay [8], the Kd worked out at 2.25 nM, the koff was 0.000176 s⁻¹ and the kon came out at 79000 M⁻¹ s⁻¹. In assay [9], this molecule yielded an IC50 of 0.858 µg/mL. This molecule gave an EC50 in assay [10] of 1.1 nM. Further, in assay [11], the “Phagocytic index, Raji cells and human macrophages, antibody at 0.125 µg/mL” value (shortened to “Phagocytic index”) is 73.9 Raji cells ingested per 100 macrophages.

B3: Candidate 20 (VL008-AL18-14G4-14K1), mouse IgG (antibody, V domains shown)
VH: QVQLKQSGAELVRPGASVKLSCKASGYSFTDYYINWVKQRPGQGLEWIARIYPGIGNTYYNKKFKGKATLTAEKSSSTAYMQLNSLTSEDSAVYFCARGHYGRGMDYWGQGTSVTVSS
VL: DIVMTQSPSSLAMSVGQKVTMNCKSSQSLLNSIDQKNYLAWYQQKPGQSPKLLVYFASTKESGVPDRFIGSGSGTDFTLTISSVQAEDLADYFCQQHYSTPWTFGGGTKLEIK
notes: Recombinant mouse IgG2a or mIgG1 format, by assay; also called antibody 20
As for B3, in assay [12], the binding result is on record as “no binding (tested: 7.3 µg/mL highest concentration)”. Besides, the 50% effective concentration (EC50) in [7] stood at 0.096 µg/mL. In assay [8], this molecule returned a Kd of 4.16 nM, a dissociation rate constant (koff) of 0.000418 s⁻¹ and a kon of 101000 M⁻¹ s⁻¹. In addition, the IC50 in assay [9] came out at 0.44 µg/mL. Moreover, the “Phagocytic index” value in assay [11] is 119 Raji cells ingested per 100 macrophages.

B4: hIgG4 chimeric candidate 20 (mouse VH0/VL0, human Fcγ4-S228P and human Kappa backbone) (antibody, V domains shown)
VH: B3 VH
VL: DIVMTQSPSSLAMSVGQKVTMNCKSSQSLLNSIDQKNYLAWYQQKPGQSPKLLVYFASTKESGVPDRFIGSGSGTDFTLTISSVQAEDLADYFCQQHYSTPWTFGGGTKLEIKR
notes: hIgG4-S228P/kappa; also called Chim; 20; Chim 20
For the molecule B4, the “EC50 (read off the curve)” value in assay [1], in assay [14], in assay [16], in [26] and in assay [30] was approximately 0.1 µg/mL throughout. Also, the concentration for half-maximal inhibition (IC50) in assay [13] came out at 0.138 µg/mL; in assay [2], 0.11 µg/mL. In addition, the EC50 in assay [15] amounted to 0.15 µg/mL; in assay [18] it was 0.028 nM; in [23] it was 0.0474 nM; in assay [4], 0.0751 µg/mL. In addition, the “IC50 (read off the curve)” value in assay [3], in assay [17], in [22], in assay [24] and in assay [31] was approximately 0.2 µg/mL throughout. Also, the binding result in [12] is “no binding”. Besides, the results for the EC95 in assay [18] and in assay [23] were 0.667 nM and 3.33 nM, respectively. Further, the figures for the koff in assay [19] and in assay [5] were 0.000505 s⁻¹ and 0.000543 s⁻¹, respectively. Moreover, the equilibrium binding constant was 38.8 pM in assay [20] and 27.3 pM in [21]. The molecule also registered a Bmax in assay [25] of 2.9 OD value. For the same molecule, the Kd was 2.48 nM in [5] and 3.22 nM in [27]. The kon came to 225000 M⁻¹ s⁻¹ in [5] and 169000 M⁻¹ s⁻¹ in assay [27]. In assay [28], the Bmax2 is 2.2 OD value. The “EC50 ratio Deglycosylated/Glycosylated” value in assay [29] was 1.7 ratio. In addition, in assay [29], the “EC95 ratio Deglycosylated/Glycosylated” value was 5 ratio.

B5: Candidate 15 (VT008-AL6-18G1-18K21), mouse IgG (antibody, V domains shown)
VH: QVQLQQPGAELVKPGTSVKLSCKASGYTFINYWIHWVKQRPGRGLEWIGRIDPNTVDAKYNEKFKSKATLTVDKPSSIAYMQLSSLTSEDSAVYYCSRGGYTMDYWGQGTSVTVSS
VL: DVVMTQTPLSLPVSLGDQASISCRSSQSLVHSNGNTYLHWYLQKPGQSPTLLIYKVSNRFSGVPDRFSGSGSGTDFTLKISRVEAEDLGIYFCFQSTHVPWTFGGGTKLEIK
notes: as for B2
Molecule B5 had an EC50 in assay [32] of 0.2 nM. In assay [7], this molecule yielded an EC50 of 0.031 µg/mL. Further, in assay [8], the affinity, expressed as Kd, was 4.24 nM; the koff came out at 0.00239 s⁻¹; the kon is 565000 M⁻¹ s⁻¹. Also, the IC50 in assay [9] turned out to be 0.605 µg/mL. Also, the “Phagocytic index” value in assay [11] is 74.4 Raji cells ingested per 100 macrophages.

B6: Candidate 15, chimeric hIgG format (hIgG1 or hIgG4) (antibody, V domains shown)
VH: B5 VH
VL: B5 VL
notes: also called Candidate 15 (hIgG format)
For the molecule B6, the half-maximal inhibitory concentration (IC50) turned out to be 0.14 nM in assay [33] and 0.021 µg/mL in assay [34].

B7: Candidate 14, chimeric hIgG format (hIgG1 or hIgG4) (antibody, V domains shown)
VH: QVQLQQPGAELVKPGASLRVSCKASGYTFTNYWMYWVRQRPGRGLEWIGWIDPNSGGTKYNEKFKSKATLTVDKPSSTAYMQLSSLTSEDSAVYNCARGGYTMDYWGQGTSVTVSS
VL: B5 VL with S25A, T50K, I90V, F94S, W101L, G105A, I111L
notes: also called Candidate 14 (hIgG format)
With B7, the figures for the IC50 in [33] and in assay [34] were 0.14 nM and 0.021 µg/mL, respectively.
